Consider one substance from article PMC3205248.

One may read the stoichiometry N as the number of molecules, sites or subunits per partner or assembly.

This experiment concerns the target His6-DIP1-c (Disconnected Interacting Protein 1, longest isoform) (Drosophila melanogaster). Put plainly: AUC.

Substance “His6-DIP1-c (Disconnected Interacting Protein 1, longest isoform) (natural protein)” had a stoichiometry N of 2.
